According to patent publication US20240294650A1 (Alector, published 2024):

B1: MTK-227 (antibody, human IgG1, V domains shown)
VH: EVKLVESGGGLVQPGGSLSLSCAASGFTFTDNYMTWVRQPPGKALEWLGFSRNKANGYTTEYSASVKGRFTISRDSSQSILYLQMNALRAEDSGTYYCARFPPHYYAGGYFDVWGTGTTVTVSS
VL: DIQMTQSPASLSASVGETVTITCRASENIYSYLAWYQQKQGKSPQLLVYNAKTLAEGVPSRFSGSGSGTQFSLKINSLQPADFGSYYCQHYYRTPPTFGGGTKLEIK
B2: MTK-212 (antibody, human IgG1, V domains shown)
VH: QVQLQQSGPELVKPGASVKISCKASGYAFSSSWVNWVKQRPGKGLEWIGRIYPGDGDSNYNGNFKGKATLTADKSSNTAYLQLSSLTSEDSAVYFCARKSHFIYYTLDYWGQGTPVTVSS
VL: DIVMTQSHKFKSTSVGDRVSIACKASQDVGTSVAWYQQKPGKSPKLLIYWASSRHTGVPDRFTGSGSGTDFTLTISNVQSEDLTDYFCQQYSTYPYTFGGGTKLEIK
B3: MTK-203 (antibody, human IgG1, V domains shown)
VH: QVQLQQPGAELVKPGASVKVSCKASGYTFTNYWMHWVKQRPGQGLEWIGRIHPFDTETNDNQKFKGKATLTVDKSSSTAYMQLSSLTSEDSAVYYCVIPANGGFAYWGQGTLVTVSA
VL: ETTVTQSPASLSVATGEKVTIRCITSTDIGDDMNWYQQKPGEPPKVLISEGNSLRPGVPSRFSSSGYGTDFVFTIENTLSEDVADYFCLQSDNLPLTFGSGTKLEIK
B4: MTK-209 (antibody, human IgG1, V domains shown)
VH: QVQLQQPGAELVKPGASVKVSCKASGYTFTNYWIHWVKQRPGQGLEWIGRIHPFDSEPNYNQKFKGKATLTVDKSSSTAYMHLTSLTSEDSAVYYCALASFAYWGQGTLVTVSA
VL: ETTVTQSPASLSMAMGEKATIRCITSTDIDDKMNWYQQKPGKPPKLLISAGNTLRPGVPSRFSSSGYGTDFVLTVENMLSEDVADYYCLQGGALPLTFGSGTKLEIK
B5: MTK-230 (antibody, human IgG1, V domains shown)
VH: EVQLQQSGPELVKPGASVRIPCKASGYTFSDYNMDWVKQSHGKSLEWIGNINPNIGGTIYSQKFKGKATLTVDKSSSTAYMELRSLTSEDTAVYYCARGDYGFASWGQGTLVTVSA
VL: DIVLTQSPASLTVSLGQRATISCRASRSVSTSGYSYMHWYQQKPGQPPKLLIYLASNLESGVPARFSGSRSGTDFTLNIHPVEEEDAATYYCQHSREYPFTFGSGTKLEIK

What follows are binders tested against T1, recombinant murine MerTK extracellular domain (mouse, UniProt Q60805 19-497) (assay: SPR Carterra LSA).
T1 construct: also called Mouse MerTK; murine MerTK ECD; not shown: polyHis or TEVS/Thrombin/murine IgG2a-Fc tag
T1 sequence: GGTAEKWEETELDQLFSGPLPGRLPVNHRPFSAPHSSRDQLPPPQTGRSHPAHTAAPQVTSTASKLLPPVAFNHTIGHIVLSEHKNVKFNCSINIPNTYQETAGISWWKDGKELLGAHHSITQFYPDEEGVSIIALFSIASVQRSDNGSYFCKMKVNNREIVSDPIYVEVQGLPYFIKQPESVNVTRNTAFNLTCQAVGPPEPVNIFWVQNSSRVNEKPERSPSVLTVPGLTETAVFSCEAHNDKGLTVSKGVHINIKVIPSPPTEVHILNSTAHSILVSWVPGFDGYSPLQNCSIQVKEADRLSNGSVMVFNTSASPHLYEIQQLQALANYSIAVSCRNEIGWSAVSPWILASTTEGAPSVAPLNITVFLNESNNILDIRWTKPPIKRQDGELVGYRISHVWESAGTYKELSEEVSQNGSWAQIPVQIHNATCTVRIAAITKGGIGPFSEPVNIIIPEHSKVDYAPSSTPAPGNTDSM
Experimental: (§1) Binding kinetics of anti-MerTK IgG1 antibodies of the present disclosure to human, cyno, and murine MerTK were evaluated using a Carterra LSA instrument (Carterra, Salt Lake City, UT). […] A HC200M sensor chip (Carterra) was activated using the single channel flow cell with a 7-minute injection of a 1:1:1 mixture of 100 mM MES pH 5.5, 100 mM sulfo-NHS, 400 mM EDC (all reconstituted in MES pH 5.5; 100 μl of each mixed in vial immediately before running assay). After switching to the multi-channel array flow cell, the antibodies were injected over the activated chip in three 96-spot arrays for 10 minutes each. The remaining unconjugated active groups on the chip were then blocked by injecting 1M Ethanolamine pH 8.5 (Carterra) for 7 minutes using the single channel flow cell. The resulting sensor chip contained three spots for each antibody, at three different densities. Two independent experiments were performed as follows, resulting in an N of between one and six determinations for each antibody. Spots that yielded less than 25 RU of analyte binding were excluded from further analysis.
(§2) After priming with running buffer (HBS-TE, Carterra) with 0.5 mg/ml BSA (Sigma), the immobilized anti-MerTK antibodies were tested for their ability to bind to several forms of recombinant MerTK extracellular domain, including human, cynomolgus, and mouse orthologs as described above. Estimates of affinity were generated by injecting each analyte over the entire antibody array using the single channel flow cell. MerTK analytes were diluted with running buffer, in a series of six, three-fold serial dilutions starting from 1 μM for human and cynomolgus MerTK, and 600 nM for mouse MerTK. Analytes were injected for 5 minutes, and dissociation was followed for 10 minutes. After each analyte injection, antibodies were regenerated with either Protein A/G Elution Buffer (Thermo) with 1M NaCl (Teknova), or with 10 mM Glycine pH 2.5. Three buffer blanks were run between each series (one species per series). Data were processed and analyzed using NextGenKIT high-throughput kinetics analysis software (Carterra).

Row | Binder | Ratio of KD for Mouse vs Human MerTK [ratio]
1 | B1 | 0.08
2 | B2 | 0.13
3 | B3 | 12.5
4 | B4 | 35.4
5 | B5 | 3.5

Target: T2, recombinant cynomolgus MerTK extracellular domain (cynomolgus, UniProt Q12866 21-505 (human entry))
T2 construct: also called cyno MerTK ECD; not shown: polyHis or TEVS/Thrombin/murine IgG2a-Fc tag
T2 chain: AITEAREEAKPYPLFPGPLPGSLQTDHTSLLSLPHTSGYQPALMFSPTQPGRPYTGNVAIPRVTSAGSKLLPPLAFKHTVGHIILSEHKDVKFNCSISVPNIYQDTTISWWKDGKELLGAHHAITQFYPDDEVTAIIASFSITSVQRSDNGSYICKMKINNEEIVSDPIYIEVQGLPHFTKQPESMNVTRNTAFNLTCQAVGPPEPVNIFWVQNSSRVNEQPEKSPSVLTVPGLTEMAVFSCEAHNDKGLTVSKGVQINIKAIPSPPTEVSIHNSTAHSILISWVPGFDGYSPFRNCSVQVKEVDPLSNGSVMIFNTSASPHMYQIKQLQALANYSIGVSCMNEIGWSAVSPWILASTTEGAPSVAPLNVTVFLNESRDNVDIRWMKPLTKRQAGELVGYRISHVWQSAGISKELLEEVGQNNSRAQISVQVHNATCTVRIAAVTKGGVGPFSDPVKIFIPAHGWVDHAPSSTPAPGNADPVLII
Assay: SPR Carterra LSA
Experimental: as §1, §2

Row | Binder | Ratio of KD for Cynomolgus vs Human MerTK [ratio]
6 | B1 | 0.8
7 | B2 | 18.3

These binders were tested against T1, recombinant murine MerTK extracellular … (assay: SPR Carterra LSA, Ab immobilised).
Method in brief: (§3)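 Surface plasmon resonance on a Carterra LSA measured affinity of immobilized antibodies for human, cynomolgus or mouse MerTK ectodomain diluted in HBS-TE with 0.5 mg/ml BSA. Analytes flowed over the full array, surfaces were regenerated with Protein A/G Elution Buffer plus 1M NaCl or 10 mM Glycine pH 2.5, and spots binding under 25 RU were discarded before kinetic fitting.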

Row | Binder | Kd [nM]
8 | B1 | 8.3
9 | B2 | 11
10 | B3 | 400
11 | B4 | 460
12 | B5 | 29

Target: T2, recombinant cynomolgus MerTK …
Assay: SPR Carterra LSA, Ab immobilised
Method in brief: as §3

Row | Binder | Kd [nM]
13 | B1 | 78
14 | B2 | 1500

Target: T3, MerTK N-terminal ECD Half-and-half chimera (human)
T3 construct: tested as culture supernatant; also called MerTK N-term half-and-half chimera; MerTK N-terminal ECD (NT-Ig1-Ig2) + Axl C-terminal ECD (FN1-FN2-JM)
T3 chain: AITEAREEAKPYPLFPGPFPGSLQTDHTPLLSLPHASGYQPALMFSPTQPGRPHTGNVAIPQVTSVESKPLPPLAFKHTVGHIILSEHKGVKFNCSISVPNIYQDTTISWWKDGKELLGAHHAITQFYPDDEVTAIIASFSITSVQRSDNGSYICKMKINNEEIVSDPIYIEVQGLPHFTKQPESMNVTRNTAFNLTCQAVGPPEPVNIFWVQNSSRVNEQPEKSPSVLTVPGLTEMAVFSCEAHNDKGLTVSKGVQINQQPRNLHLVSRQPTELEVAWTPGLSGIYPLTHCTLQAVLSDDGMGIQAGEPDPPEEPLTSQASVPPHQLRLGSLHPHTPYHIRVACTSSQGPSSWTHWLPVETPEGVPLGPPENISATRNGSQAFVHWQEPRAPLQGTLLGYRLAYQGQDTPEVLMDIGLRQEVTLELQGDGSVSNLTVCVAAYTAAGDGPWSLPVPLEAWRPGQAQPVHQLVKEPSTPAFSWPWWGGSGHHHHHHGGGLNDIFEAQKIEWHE
Assay: SPR, construct supernatant over immobilised Ab
Method in brief: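 SPR, Carterra LSA: anti-MerTK Ab amine-coupled (duplicate, HC30M chip); construct supernatant diluted 1:1 in HBS-TE + 0.5 mg/mL BSA, injected; regen 10 mM glycine pH2.0 after each injection. Read-out = binding pattern per construct.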

Row | Binder | binding result
15 | B1 | no binding
16 | B2 | no binding
17 | B3 | no binding
18 | B4 | no binding
19 | B5 | no binding
